± gives the standard deviation of the averaged measurements.
Tested on: Saccharomyces cerevisiae
Test: protein stability index of tFT-peptide fusion (C-terminal peptide) (PSI (0-1 scale)); higher = more stable (slower turnover)
Settings: genetic background: wild type; temperature: 30 C
Description: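 Multiplexed protein stability (MPS) profiling in S. cerevisiae. Random 12-aa peptides (tFT-X12 library) are fused to the C-terminus of a sfGFP-mCherry tandem fluorescent timer, after mCherry and a GGGS linker. Cells are FACS-sorted into 8 mCherry/sfGFP bins and deep-sequenced. The protein stability index (PSI) is the read-weighted bin average, scaled from 0 (unstable) to 1 (stable). Only peptides with >10 reads are reported; cells were grown at 30 °C in SC-His with glucose.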
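Note: PSI is a weighted mean of sequencing reads over stability bins, variants kept only with over 10 reads, mCherry proximal and sfGFP distal, peptide attached via GGGS linker.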

Row | Sequence | protein stability index
1 | DPRAGLGLLELT | 0.644 ± 0.067
2 | DQFRLLQYWEAS | 0.72 ± 0.048
3 | DQTPRWQRCTRQ | 0.733 ± 0.12
4 | DQVGLVLSDLIY | 0.7272 ± 0.00085
5 | DREKGGLREADQ | 0.669 ± 0.035
6 | DREKRKSGGERR | 0.647 ± 0.039
7 | DRGSGRFVRGGL | 0.664 ± 0.083
8 | DRKDGVSVSVGY | 0.675 ± 0.05
9 | DRLGFGPVSRID | 0.665 ± 0.064
10 | DRPPYTPHPPYP | 0.7521 ± 0.0073
11 | DRPSPGLALGGP | 0.7314 ± 0.0023
12 | DRRNNRLIRRNQ | 0.7174 ± 0.0045
13 | DRSRESSMSLPD | 0.711 ± 0.0076
14 | DRSRSPCPCSSP | 0.6898 ± 0.0022
15 | DSCPGAAGGRGG | 0.642 ± 0.043
16 | DSGTIWFPTHFV | 0.7151 ± 0.0044
17 | DSGVAVVLVGCV | 0.529 ± 0.013
18 | DSPASHWSVKSL | 0.638 ± 0.043
19 | DSTTGALILLPV | 0.692 ± 0.021
20 | DTDIHRKRTRQV | 0.7 ± 0.037
21 | DTIQFLQCYRPI | 0.655 ± 0.035
22 | DTSRGDWEVFLI | 0.713 ± 0.061
23 | DTYKDSHLNRRI | 0.664 ± 0.022
24 | DVCFIRRRYKKI | 0.669 ± 0.041
25 | DVERKKIKIARQ | 0.714 ± 0.047

Row | Sequence | protein stability index
26 | DVHNRSPNRAPE | 0.671 ± 0.042
27 | DVNTGYHFLRDL | 0.6757 ± 0.0015
28 | DVRLGSQGSFRW | 0.705 ± 0.01
29 | DVRYQSLRRSGF | 0.725 ± 0.028
30 | DVWVLAANSSLG | 0.758 ± 0.1
31 | DWGGRRVTEEEG | 0.641 ± 0.029
32 | DYLSSPLSSPSP | 0.667 ± 0.066
33 | DYSTLFVSVADP | 0.667 ± 0.0069
34 | EAGMGVGRCGTG | 0.728 ± 0.01
35 | EARMGGGRCGTG | 0.684 ± 0.008
36 | EAWRQGRAGRGP | 0.6148 ± 0.0034
37 | ECGGAVALSDRA | 0.7672 ± 0.0018
38 | ECPYFSHTPVAV | 0.644 ± 0.032
39 | ECVERYLFGEGA | 0.71403 ± 0.00042
40 | ECVGSSKVYMLL | 0.677 ± 0.092
41 | ECYLYGSMDGFI | 0.588 ± 0.036
42 | EDVEGVWVKGCE | 0.725 ± 0.17
43 | EEAGETAGGRRE | 0.648 ± 0.093
44 | EEGGEVREGKQA | 0.702 ± 0.019
45 | EEHVIQNIKCKN | 0.738 ± 0.037
46 | EELGRGLESLGL | 0.699 ± 0.076
47 | EEPVVSNPPLLA | 0.688 ± 0.033
48 | EERNNQRKKRKG | 0.709 ± 0.038
49 | EERNSVRGYTES | 0.734 ± 0.028
50 | EESRVRTTNNTT | 0.666 ± 0.057

Row | Sequence | protein stability index
51 | EFFAPDVVALMR | 0.692 ± 0.17
52 | EFPRHDLDCSLV | 0.7095 ± 0.00082
53 | EGAQVVLVRVGV | 0.547 ± 0.012
54 | EGDGLGWGGQGG | 0.67 ± 0.013
55 | EGDTPFKNRVKF | 0.716 ± 0.061
56 | EGEEVNTGGEEA | 0.642 ± 0.017
57 | EGEGPRGNGSGA | 0.648 ± 0.043
58 | EGGLDPFRVIMG | 0.643 ± 0.029
59 | EGLCVLMTQVGG | 0.576 ± 0.016
60 | EGRCPAMRGAFG | 0.6797 ± 0.0041
61 | EGRPGGVGEGSQ | 0.671 ± 0.011
62 | EGSRRQERAGRQ | 0.6668 ± 0.0028
63 | EGTPGARSQGRE | 0.662 ± 0.035
64 | EGVGRRICSPQA | 0.648 ± 0.031
65 | EGVVGGRWCGRG | 0.676 ± 0.082
66 | EGWLVDVDRIVG | 0.741 ± 0.076
67 | EHLQTHYLWSTG | 0.701 ± 0.062
68 | EIDAKNRDEETN | 0.694 ± 0.019
69 | EILQDRAVSKGR | 0.697 ± 0.039
70 | EITRRAQHWKAK | 0.708 ± 0.018
71 | EKEFLWKAISAV | 0.504 ± 0.016
72 | EKEKKKVHRQEE | 0.712 ± 0.059
73 | EKGKGREIKKGE | 0.646 ± 0.048
74 | EKGRKKTYGDEK | 0.669 ± 0.02
75 | EKGSIYVVQYGK | 0.683 ± 0.022

Row | Sequence | protein stability index
76 | EKHNNNRYKQYL | 0.7255 ± 0.0052
77 | EKKEHNHKVKYN | 0.626 ± 0.026
78 | EKKKKIKNKESI | 0.6932 ± 0.0036
79 | EKKKKKAKKEKN | 0.764 ± 0.045
80 | EKMDIEKKVEGS | 0.812 ± 0.12
81 | EKNRRCQKRKKK | 0.726 ± 0.054
82 | EKQIREERRKIE | 0.704 ± 0.062
83 | EKRDENENTNKK | 0.66 ± 0.072
84 | EKRERKRDSGHR | 0.685 ± 0.063
85 | EKTQQMPQPNNQ | 0.663 ± 0.007
86 | EKTTDIKENERR | 0.692 ± 0.029
87 | ELINQENQPAYE | 0.671 ± 0.038
88 | ELRCSRPIHSDF | 0.681 ± 0.013
89 | ELRISSTTVTSP | 0.664 ± 0.008
90 | ELRTKRGASNPR | 0.7097 ± 0.0021
91 | ELSNLRGLHTCT | 0.654 ± 0.02
92 | ELVSFPIGGMGS | 0.671 ± 0.056
93 | ENDRKKDKERIK | 0.678 ± 0.013
94 | ENKIKERPKMRY | 0.658 ± 0.026
95 | ENLVLRDRGRGM | 0.692 ± 0.017
96 | ENNKRRTKRHKE | 0.62791 ± 0.00025
97 | ENVINGLITIKK | 0.742 ± 0.039
98 | EPDCLVSSSVGI | 0.686 ± 0.049
99 | EPDQERKSIQGM | 0.7 ± 0.013
100 | EPPRSPRSLPPL | 0.661 ± 0.0073

Row | Sequence | protein stability index
101 | EPTLLVRMVANR | 0.529 ± 0.026
102 | EQGIRHVRAIVV | 0.539 ± 0.012
103 | EQRNLELSGHIC | 0.725 ± 0.12
104 | ERCVCLRGVSSG | 0.708 ± 0.011
105 | EREGVREGEGRV | 0.654 ± 0.02
106 | ERGGWGGGSEVG | 0.684 ± 0.091
107 | ERIKQGKKKRGT | 0.778 ± 0.12
108 | ERKGIIIGHSHS | 0.71 ± 0.037
109 | ERKKPKKKRMRY | 0.706 ± 0.011
110 | ERLHRRRRGECA | 0.6743 ± 0.0061
111 | ERPQTKPCQTPL | 0.728 ± 0.038
112 | ERWSHNKEDDRN | 0.6577 ± 0.0048
113 | ERYKKRGKTNKV | 0.662 ± 0.0076
114 | ESAGLAGLSRAA | 0.668 ± 0.022
115 | ESEKKHNKKRRV | 0.654 ± 0.069
116 | ESLRNGKKYNKL | 0.7417 ± 0.0017
117 | ESLSAVAAGRGM | 0.689 ± 0.024
118 | ETEQTSIRRIKQ | 0.728 ± 0.012
119 | ETKKGKKKKMTM | 0.682 ± 0.0069
120 | ETVIQRFLSGHI | 0.699 ± 0.017
121 | EVDSTLAPHGHP | 0.866 ± 0.041
122 | EVEGFLFVFEVK | 0.609 ± 0.015
123 | EVFGLWQGCFVW | 0.728 ± 0.058
124 | EVGQLQPNGGWV | 0.661 ± 0.033
125 | EVNYKKRQNKKN | 0.71 ± 0.0066

Row | Sequence | protein stability index
126 | EVTRAGEDAGDG | 0.643 ± 0.023
127 | EVTSQGWRNGVD | 0.742 ± 0.028
128 | EVWQGRLKGVLG | 0.691 ± 0.031
129 | EWEEGREIGGRV | 0.69633 ± 0.00068
130 | EWGEEDRDGNGR | 0.721 ± 0.053
131 | EWPTESSLSSET | 0.689 ± 0.081
132 | EWTTEQRSVGPR | 0.683 ± 0.02
133 | EWVCRAGVQGGA | 0.691 ± 0.017
134 | EWVYSGDGMGVG | 0.622 ± 0.03
135 | EWYRNNFFFLDL | 0.772 ± 0.02
136 | EYLHPARITGVL | 0.733 ± 0.11
137 | EYRVRHSVDARS | 0.6241 ± 0.0019
138 | EYVDVDVQDCRG | 0.692 ± 0.035
139 | FAGLVSPASLHP | 0.686 ± 0.026
140 | FAISTSMVNLAM | 0.681 ± 0.039
141 | FAPSPVPPLAPF | 0.682 ± 0.053
142 | FASLVSPWFDLV | 0.716 ± 0.13
143 | FASLVVSYGAGY | 0.6712 ± 0.0019
144 | FASVVADVFQFP | 0.772 ± 0.088
145 | FCCGGEFAWCLG | 0.695 ± 0.016
146 | FCCRLSGFSILG | 0.663 ± 0.033
